Holding throughout (test): EC50 of free RNA motif oligo competing protein binding to immobilised probe
In data set [1] the target is T1, DDX21 (UniProt Q9NR30).
T1 sequence: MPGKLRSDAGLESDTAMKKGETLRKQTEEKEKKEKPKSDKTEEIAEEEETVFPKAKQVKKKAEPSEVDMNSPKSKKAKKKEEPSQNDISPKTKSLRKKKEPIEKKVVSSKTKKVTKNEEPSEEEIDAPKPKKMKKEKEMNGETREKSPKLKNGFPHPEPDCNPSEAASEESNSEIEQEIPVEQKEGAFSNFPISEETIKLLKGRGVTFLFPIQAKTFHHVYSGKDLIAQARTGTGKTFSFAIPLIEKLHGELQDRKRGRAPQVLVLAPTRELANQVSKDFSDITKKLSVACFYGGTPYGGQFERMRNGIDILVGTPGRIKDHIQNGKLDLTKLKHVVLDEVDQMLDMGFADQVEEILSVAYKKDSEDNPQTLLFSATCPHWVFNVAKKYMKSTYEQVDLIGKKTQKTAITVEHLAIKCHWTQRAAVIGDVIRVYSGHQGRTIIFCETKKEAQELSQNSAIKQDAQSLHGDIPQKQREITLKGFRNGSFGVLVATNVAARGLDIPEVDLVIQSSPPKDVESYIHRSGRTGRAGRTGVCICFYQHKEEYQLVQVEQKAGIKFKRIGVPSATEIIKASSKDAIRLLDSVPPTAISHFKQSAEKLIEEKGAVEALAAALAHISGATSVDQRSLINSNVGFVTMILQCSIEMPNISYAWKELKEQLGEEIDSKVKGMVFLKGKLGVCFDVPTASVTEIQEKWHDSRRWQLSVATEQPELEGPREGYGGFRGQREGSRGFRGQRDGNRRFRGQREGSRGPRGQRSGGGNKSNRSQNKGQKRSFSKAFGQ
In a few lines: (§1)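 Free RNA oligos (0 nM to 30 μM) competed for 1 h at 4°C in HEK293-FT lysate (2.5 mg protein/well) before a 30 min, 4°C pulldown with the same oligos on NHS-Sepharose beads. Bound proteins were quantified by label-free LC-MS/MS and normalised to the control. Kd was found by multiplying EC50, from a four-parameter log-logistic fit, by a protein-dependent depletion factor.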

Data set [2] deals with MRPL14 (UniProt Q6P1L8). Summed up: as §1
The target of data set [3] is RPS14 (UniProt P62263). Summed up: as §1
Data set [4] addresses T2, FASTKD2 (UniProt Q9NYY8).
T2 sequence: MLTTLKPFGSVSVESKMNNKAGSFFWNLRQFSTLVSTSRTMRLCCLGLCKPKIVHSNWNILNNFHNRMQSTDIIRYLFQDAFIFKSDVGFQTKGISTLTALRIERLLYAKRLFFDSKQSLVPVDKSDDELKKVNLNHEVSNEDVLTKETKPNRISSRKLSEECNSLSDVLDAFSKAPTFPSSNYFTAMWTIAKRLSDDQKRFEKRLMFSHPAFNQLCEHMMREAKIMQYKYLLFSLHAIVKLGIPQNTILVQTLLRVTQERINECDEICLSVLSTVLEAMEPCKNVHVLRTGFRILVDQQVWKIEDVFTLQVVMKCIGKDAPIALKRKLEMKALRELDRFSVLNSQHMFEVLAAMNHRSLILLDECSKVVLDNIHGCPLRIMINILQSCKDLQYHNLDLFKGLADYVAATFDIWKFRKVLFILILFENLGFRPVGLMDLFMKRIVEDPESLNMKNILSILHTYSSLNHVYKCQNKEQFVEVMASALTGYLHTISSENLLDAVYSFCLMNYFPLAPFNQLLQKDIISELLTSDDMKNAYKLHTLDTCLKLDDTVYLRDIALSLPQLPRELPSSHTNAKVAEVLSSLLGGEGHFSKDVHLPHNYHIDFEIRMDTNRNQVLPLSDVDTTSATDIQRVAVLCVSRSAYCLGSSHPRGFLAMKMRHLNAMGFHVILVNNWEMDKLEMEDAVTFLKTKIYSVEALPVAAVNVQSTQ
Summed up:
as §1

Data set [5] addresses MRPS2 (UniProt Q9Y399). Summed up: as §1
Data set [6] has as its target MRPS25 (UniProt P82663). Summed up:
as §1

Data set [7] addresses SKIV2L (UniProt Q15477). Summed up:
as §1

Sequence of SKIV2L (Q15477 whole entry): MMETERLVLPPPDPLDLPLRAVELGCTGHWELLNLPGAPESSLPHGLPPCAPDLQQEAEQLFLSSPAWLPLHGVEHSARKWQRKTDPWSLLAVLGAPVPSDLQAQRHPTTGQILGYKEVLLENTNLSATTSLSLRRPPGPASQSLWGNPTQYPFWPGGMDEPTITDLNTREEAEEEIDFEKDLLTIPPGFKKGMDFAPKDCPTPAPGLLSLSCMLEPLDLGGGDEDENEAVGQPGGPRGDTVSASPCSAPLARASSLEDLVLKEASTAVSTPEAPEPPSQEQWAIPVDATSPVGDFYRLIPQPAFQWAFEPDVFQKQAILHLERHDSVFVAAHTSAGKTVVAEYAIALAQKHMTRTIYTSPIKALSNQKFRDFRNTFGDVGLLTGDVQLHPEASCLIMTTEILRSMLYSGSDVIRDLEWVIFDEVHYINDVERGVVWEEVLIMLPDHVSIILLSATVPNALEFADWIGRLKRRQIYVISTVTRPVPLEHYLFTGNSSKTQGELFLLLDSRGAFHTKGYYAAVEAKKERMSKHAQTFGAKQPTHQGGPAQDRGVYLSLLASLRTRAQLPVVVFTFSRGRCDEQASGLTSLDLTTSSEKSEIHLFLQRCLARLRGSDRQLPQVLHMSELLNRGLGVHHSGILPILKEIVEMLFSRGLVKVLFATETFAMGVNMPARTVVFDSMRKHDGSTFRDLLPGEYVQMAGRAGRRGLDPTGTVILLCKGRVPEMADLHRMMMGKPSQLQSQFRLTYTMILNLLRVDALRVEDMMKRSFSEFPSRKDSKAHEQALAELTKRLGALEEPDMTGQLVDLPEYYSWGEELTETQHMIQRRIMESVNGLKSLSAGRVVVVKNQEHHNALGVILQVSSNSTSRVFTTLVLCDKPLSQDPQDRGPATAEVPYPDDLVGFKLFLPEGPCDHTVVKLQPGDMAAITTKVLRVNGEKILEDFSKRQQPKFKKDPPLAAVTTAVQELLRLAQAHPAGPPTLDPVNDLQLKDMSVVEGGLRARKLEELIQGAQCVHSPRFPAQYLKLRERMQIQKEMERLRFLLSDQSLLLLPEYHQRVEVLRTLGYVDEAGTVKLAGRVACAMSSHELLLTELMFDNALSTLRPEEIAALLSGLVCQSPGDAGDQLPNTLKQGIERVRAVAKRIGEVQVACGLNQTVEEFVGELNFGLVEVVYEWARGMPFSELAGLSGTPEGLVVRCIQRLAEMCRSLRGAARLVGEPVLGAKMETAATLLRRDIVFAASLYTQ

As for CUGUCCU, the EC50 (in general, the concentration at which the effect is half-maximal) in data set [1] was found to be 116 nM; in data set [2] it was 104 nM; in data set [3] it was 180 nM.
On to UAUUUAU, for which the EC50 in data set [4] was 7860 nM; in data set [5] it was 29.1 nM; in data set [6] it was 17.4 nM; in data set [7] it was 1950 nM.
